Our source for the Kd and fold decrease in binding against wildtype values is article PMC12599243, “Mechanistic insights into DNA binding by BD1 of the TAF1 tandem bromodomain module”.

Series [1] concerns the target T1, TAF1 tandem bromodomain (BD1-BD2) (human, UniProt P21675 1402-1656).
T1 sequence: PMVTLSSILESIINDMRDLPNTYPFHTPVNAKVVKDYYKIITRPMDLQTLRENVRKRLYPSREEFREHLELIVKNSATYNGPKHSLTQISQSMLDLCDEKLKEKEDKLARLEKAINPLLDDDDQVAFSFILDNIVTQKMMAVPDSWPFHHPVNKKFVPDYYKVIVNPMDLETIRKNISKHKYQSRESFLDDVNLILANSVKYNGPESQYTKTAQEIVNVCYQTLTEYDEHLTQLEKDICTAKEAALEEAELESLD
Description: EMSA. The conditions noted are these: EMSA: 50 mM HEPES pH 7.5, 100 mM NaCl, 35 nM DNA, 1 h at 4 C, 6% native PAGE, 0.5x TBE, 100 V on ice. HeLa mononucleosome pulldown (undefined DNA) not listed.

The target of series [2] is Histone H4 H4K5acK12ac peptide (Homo sapiens) (UniProt P62805). The settings on record: cited from earlier work.
For series [3], the target named is Histone H4 H4K8acK16ac peptide (Homo sapiens) (UniProt P62805). The settings on record: cited from earlier work.
Series [4] deals with TAF1 tandem bromodomain BD1 triple mutant (R1435S/K1436S/R1437S), 6xHis-tagged (human). In words: pull-down; 20 μg hyperacetylated HeLa mononucleosomes (cells treated with trichostatin A) mixed with 50 μM 6xHis-tagged TAF1 tandem bromodomain or its mutant, 4°C, 60 min; captured on Ni-NTA agarose; washed with 50 mM HEPES pH 7.5, 500 mM KCl, 2 mM EDTA, 0.1% Tween-20; eluted with 500 mM imidazole; western blot with anti-H4K5ac and anti-H4K8ac.

Series [5] addresses T1, TAF1 tandem bromodomain (BD1-BD2). Description: EMSA; no peptide; EMSA: 50 mM HEPES pH 7.5, 100 mM NaCl, 35 nM DNA, 1 h at 4 C; 6% native PAGE, 0.5x TBE, 100 V on ice. HeLa mononucleosome pulldown (undefined DNA) not listed. The settings on record: protein: recombinant; tags: C-terminal 6xHis; label: none (SYBR Gold stain); blunt.

In the case of 147 bp Widom 601 DNA, the figures for the Kd in series [1] (320 uM H4(1-15)K5acK12ac peptide) and in series [1] (no peptide) were 19.7 µM and 16.8 µM, respectively.

For “TAF1 tandem bromodomain (from UniProt P21675)”, the Kd was 1.4 µM in series [2] and 5.3 µM in series [3].

Regarding “acetylated mononucleosomes isolated from HeLa cells (from UniProt P62805 1-103) (complex)”, the fold decrease in binding against wildtype in series [4] turned out to be 1.5 fold.

B1: 147 bp GC-rich 601 DNA (AT-tracts mutated to GC) (dsDNA)
DNA 1: CTGGAGAATCCCGGTGCCGAGGCCGCTCGACTGGTCGTAGACAGCTCTAGCACCGCTCAGACGCACGTACGCGCTGTCCCCCGCGTTTCAGCCGCCAAGGGGACTGCTCCCTAGTCTCCAGGCACGTGTCAGATGCGTACATCCTGT
DNA 2: ACAGGATGTACGCATCTGACACGTGCCTGGAGACTAGGGAGCAGTCCCCTTGGCGGCTGAAACGCGGGGGACAGCGCGTACGTGCGTCTGAGCGGTGCTAGAGCTGTCTACGACCAGTCGAGCGGCCTCGGCACCGGGATTCTCCAG
In the case of B1, the Kd in series [5] turned out to be 34.2 ± 5.4 µM.
